These results are taken from publication PMC9482650, “Quantitative fragmentomics allow affinity mapping of interactomes” (Nature Communications, 2022).

Holding throughout (test): holdup assay
Design in all cases: key: below the threshold = too weak to quantify, mostly under pKd 3.1 to 4
Holding throughout (conditions): plain residues with an end cap or a label only (N-terminal biotin on a linker: ado-ado)

Experiment [1] has as its target T1, APBA2_2, Q99767.
T1 sequence (Q99767 654-744, limits assumed, looked up): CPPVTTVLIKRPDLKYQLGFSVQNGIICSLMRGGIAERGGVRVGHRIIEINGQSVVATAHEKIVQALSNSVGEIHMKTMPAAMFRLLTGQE

Experiment [2] has as its target T2, ARHGAP21, Q5T5U3.
T2 sequence (Q5T5U3 45-169, limits assumed, looked up): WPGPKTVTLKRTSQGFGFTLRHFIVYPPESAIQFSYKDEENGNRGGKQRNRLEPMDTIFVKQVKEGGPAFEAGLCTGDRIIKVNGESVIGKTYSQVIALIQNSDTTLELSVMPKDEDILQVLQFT

The target of experiment [3] is T3, DFNB31_2, Q9P202.
T3 sequence (Q9P202 274-371, limits assumed, looked up): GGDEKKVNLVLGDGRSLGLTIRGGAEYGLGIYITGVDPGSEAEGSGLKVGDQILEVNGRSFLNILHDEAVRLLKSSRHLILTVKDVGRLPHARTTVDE

The target in experiment [4] is DLG1_2, Q12959.
Chain of DLG1_2, Q12959 (Q12959 314-412): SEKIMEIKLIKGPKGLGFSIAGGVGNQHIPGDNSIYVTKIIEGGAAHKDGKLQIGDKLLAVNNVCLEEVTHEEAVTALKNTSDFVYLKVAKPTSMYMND
In experiment [5] the target is DLG2_2, Q15700.
Experiment [6] deals with DLG2_3, Q15700.
Experiment [7] addresses T4, DLG3_1, Q92796.
T4 sequence (Q92796 125-227, limits assumed, looked up): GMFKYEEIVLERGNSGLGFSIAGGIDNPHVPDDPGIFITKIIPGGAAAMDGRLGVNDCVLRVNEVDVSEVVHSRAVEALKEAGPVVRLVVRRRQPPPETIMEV

In experiment [8] the target is HTRA1, Q92743.
Chain of HTRA1, Q92743 (Q92743 360-477): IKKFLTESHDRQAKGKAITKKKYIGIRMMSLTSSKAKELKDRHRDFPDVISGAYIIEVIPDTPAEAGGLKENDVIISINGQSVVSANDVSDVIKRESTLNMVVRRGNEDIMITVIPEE
Experiment [9] concerns the target IL16_3, Q14005.
In experiment [10] the target is T5, LIN7A, O14910.
T5 sequence (O14910 103-200, limits assumed, looked up): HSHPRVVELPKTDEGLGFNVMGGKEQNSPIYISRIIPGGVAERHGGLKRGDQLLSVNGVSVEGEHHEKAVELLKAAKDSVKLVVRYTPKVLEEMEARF

The target of experiment [11] is T6, LRRC7, Q96NW7.
T6 sequence (Q96NW7 1440-1537, limits assumed, looked up): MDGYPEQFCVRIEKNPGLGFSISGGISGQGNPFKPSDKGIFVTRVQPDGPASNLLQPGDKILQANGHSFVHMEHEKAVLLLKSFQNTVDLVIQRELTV

Experiment [12] addresses MAGI2_5, Q86UL8.
The target in experiment [13] is MAST1, Q9Y2H9.
Chain of MAST1, Q9Y2H9 (Q9Y2H9 962-1065): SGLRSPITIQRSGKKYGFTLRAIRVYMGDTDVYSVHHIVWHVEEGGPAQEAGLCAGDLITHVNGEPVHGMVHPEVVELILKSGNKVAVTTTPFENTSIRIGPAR
Experiment [14] has as its target T7, MPDZ_10, O75970.
T7 sequence (O75970 1624-1722, limits assumed, looked up): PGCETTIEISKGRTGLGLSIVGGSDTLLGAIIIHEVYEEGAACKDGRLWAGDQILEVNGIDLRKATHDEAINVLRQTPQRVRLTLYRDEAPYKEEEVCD

Experiment [15] addresses T8, MPDZ_12, O75970.
T8 sequence (O75970 1857-1958, limits assumed, looked up): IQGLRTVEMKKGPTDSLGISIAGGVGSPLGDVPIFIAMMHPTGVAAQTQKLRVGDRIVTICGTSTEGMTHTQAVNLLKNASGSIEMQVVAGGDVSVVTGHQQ

For experiment [16], the target named is T9, MPDZ_5, O75970.
T9 sequence (O75970 695-796, limits assumed, looked up): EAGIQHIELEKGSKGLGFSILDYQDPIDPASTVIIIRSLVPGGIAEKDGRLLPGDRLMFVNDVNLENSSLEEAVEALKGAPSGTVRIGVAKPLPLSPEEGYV

Experiment [17] has as its target T10, NHERF3_1, Q5T2W1.
T10 sequence (Q5T2W1 4-100, limits assumed, looked up): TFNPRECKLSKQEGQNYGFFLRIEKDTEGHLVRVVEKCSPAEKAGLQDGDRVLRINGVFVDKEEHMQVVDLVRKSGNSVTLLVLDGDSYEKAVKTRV

Experiment [18] concerns the target T11, NHERF3_4, Q5T2W1.
T11 sequence (Q5T2W1 373-468, limits assumed, looked up): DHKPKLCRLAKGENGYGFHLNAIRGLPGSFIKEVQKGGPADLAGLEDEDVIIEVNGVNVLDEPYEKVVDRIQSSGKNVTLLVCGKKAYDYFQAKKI

The target of experiment [19] is NOS1, P29475.
Chain of NOS1, P29475 (P29475 9-101): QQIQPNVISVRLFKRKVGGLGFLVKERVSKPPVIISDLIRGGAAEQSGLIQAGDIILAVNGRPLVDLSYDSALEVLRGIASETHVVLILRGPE
For experiment [20], the target named is T12, PDZRN3_1, Q9UPQ7.
T12 sequence (Q9UPQ7 244-349, limits assumed, looked up): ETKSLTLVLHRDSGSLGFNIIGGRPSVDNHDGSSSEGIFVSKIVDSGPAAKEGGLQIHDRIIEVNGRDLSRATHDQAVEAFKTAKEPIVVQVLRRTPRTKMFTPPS

Experiment [21] addresses PICK1, Q9NRD5.
Experiment [22] concerns the target PTPN3, P26045.
Experiment [23] addresses TJP1_2, Q07157.
In experiment [24] the target is T13, TX1BP3, O14907.
T13 sequence (O14907 10-122, limits assumed, looked up): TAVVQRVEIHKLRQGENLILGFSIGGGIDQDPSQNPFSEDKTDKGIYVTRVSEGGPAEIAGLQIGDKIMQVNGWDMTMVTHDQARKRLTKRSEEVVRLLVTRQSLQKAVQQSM

Chain of PTPN3, P26045 (P26045 505-587): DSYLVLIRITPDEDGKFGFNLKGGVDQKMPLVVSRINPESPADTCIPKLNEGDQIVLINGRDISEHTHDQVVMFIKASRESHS
Chain of MAGI2_5, Q86UL8 (Q86UL8 915-1017): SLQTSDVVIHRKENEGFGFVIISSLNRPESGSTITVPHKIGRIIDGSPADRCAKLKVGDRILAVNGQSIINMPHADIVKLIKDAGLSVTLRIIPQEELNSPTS
Chain of PICK1, Q9NRD5 (Q9NRD5 17-115): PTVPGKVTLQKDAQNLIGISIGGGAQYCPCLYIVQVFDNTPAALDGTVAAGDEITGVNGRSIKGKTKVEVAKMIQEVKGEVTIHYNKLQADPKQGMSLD
Chain of IL16_3, Q14005 (Q14005 1107-1207): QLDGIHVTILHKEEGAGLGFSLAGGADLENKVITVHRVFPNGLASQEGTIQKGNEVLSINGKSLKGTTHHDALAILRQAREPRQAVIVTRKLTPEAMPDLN
Chain of TJP1_2, Q07157 (Q07157 181-274): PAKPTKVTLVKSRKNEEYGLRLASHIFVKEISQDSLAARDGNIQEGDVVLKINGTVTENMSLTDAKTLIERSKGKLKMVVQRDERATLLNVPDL

B1: OR10G3, Q8NGC4 (peptide)
chain: LRSPRTPSEV
B1: the pKd result is “below the threshold” in experiment [1]; 3.97 in experiment [2]; “below the threshold” in experiment [3]; 4.1 in experiment [4]; 3.55 in experiment [5]; “below the threshold” in [6]. For the same molecule, the pKd entry was “below the threshold” in experiment [7]; 3.58 in experiment [8]; “below the threshold” in experiment [9]; “below the threshold” in experiment [10]; 3.48 in experiment [11]; “below the threshold” in experiment [12]. In addition, the pKd result was “below the threshold” in experiment [13]; 3.67 in [14]; 3.5 in experiment [15]; 3.82 in experiment [16]; “below the threshold” in experiment [17]; “below the threshold” in experiment [18]. Moreover, the pKd in experiment [19] is 3.76; in experiment [20] it was “below the threshold”; in experiment [21] it was “below the threshold”; in experiment [22], 4.26; in [23], 3.62; in [24], 3.51.

B2: EVI5, O60447 (peptide)
chain: RRRESYSTTV
As to B2, the pKd entry in experiment [1] was “below the threshold”; in [2] it was 3.82; in [3] it was “below the threshold”; in experiment [4], 5.57; in [5] it was 5.54; in experiment [6], 4.52. Besides, the pKd in [7] was 5.06; in [8], 4.45; in experiment [9] it was “below the threshold”; in [10], “below the threshold”; in experiment [11], “below the threshold”; in [12], 4.54. Moreover, the pKd in experiment [13] is 4.82; in [14], “below the threshold”; in experiment [15], “below the threshold”; in experiment [16] it was “below the threshold”; in experiment [17], 4.31; in experiment [18], “below the threshold”. In addition, the pKd result in experiment [19] was “below the threshold”; in experiment [20], 3.83; in experiment [21], 4.05; in experiment [22], 4.31; in experiment [23], “below the threshold”; in [24] it was 4.09.
